Test results taken from PMC2120109 (The Journal of Cell Biology, 1994).

Target: the molecule itself
Assay: SEC

| Protein | binding result |
| --- | --- |
| NSF K266A mutant with His6 at the amino terminus and a myc epitope at the carboxy terminus (natural protein, UniProt P18708 1-744, looked up) MAGRSMQAARCPTDELSLSNCAVVSEKDYQSGQHVIVRTSPNHKYIFTLRTHPSVVPGSVAFSLPQRKWAGLSIGQEIEVALYSFDKAKQCIGTMTIEIDFLQKKNIDSNPYDTDKMAAEFIQQFNNQAFSVGQQLVFSFNDKLFGLLVKDIEAMDPSILKGEPASGKRQKIEVGLVVGNSQVAFEKAENSSLNLIGKAKTKENRQSIINPDWNFEKMGIGGLDKEFSDIFRRAFASRVFPPEIVEQMGCKHVKGILLYGPPGCGATLLARQIGKMLNAREPKVVNGPEILNKYVGESEANIRKLFADAEEEQRRLGANSGLHIIIFDEIDAICKQRGSMAGSTGVHDTVVNQLLSKIDGVEQLNNILVIGMTNRPDLIDEALLRPGRLEVKMEIGLPDEKGRLQILHIHTARMRGHQLLSADVDIKELAVETKNFSGAELEGLVRAAQSTAMNRHIKASTKVEVDMEKAESLQVTRGDFLASLENDIKPAFGTNQEDYASYIMNGIIKWGDPVTRVLDDGELLVQQTKNSDRTPLVSVLLEGPPHSGKTALAAKIAEESNFPFIKICSPDKMIGFSETAKCQAMKKIFDDAYKSQLSCVVVDDIERLLDYVPIGPRFSNLVLQALLVLLKKAPPQGRKLLIIGTTSRKDVLQEMEMLNAFSTTIHVPNIATGEQLLEALELLGNFKDKERTTIAQQVKGKKVWIGIKKLLMLIEMSLQMDPEYRVRKFLALLREEGASPLDFD | binds |
| NSF double hydrolysis mutant E329/D604Q (natural protein, UniProt P18708 1-744, looked up) MAGRSMQAARCPTDELSLSNCAVVSEKDYQSGQHVIVRTSPNHKYIFTLRTHPSVVPGSVAFSLPQRKWAGLSIGQEIEVALYSFDKAKQCIGTMTIEIDFLQKKNIDSNPYDTDKMAAEFIQQFNNQAFSVGQQLVFSFNDKLFGLLVKDIEAMDPSILKGEPASGKRQKIEVGLVVGNSQVAFEKAENSSLNLIGKAKTKENRQSIINPDWNFEKMGIGGLDKEFSDIFRRAFASRVFPPEIVEQMGCKHVKGILLYGPPGCGKTLLARQIGKMLNAREPKVVNGPEILNKYVGESEANIRKLFADAEEEQRRLGANSGLHIIIFDQIDAICKQRGSMAGSTGVHDTVVNQLLSKIDGVEQLNNILVIGMTNRPDLIDEALLRPGRLEVKMEIGLPDEKGRLQILHIHTARMRGHQLLSADVDIKELAVETKNFSGAELEGLVRAAQSTAMNRHIKASTKVEVDMEKAESLQVTRGDFLASLENDIKPAFGTNQEDYASYIMNGIIKWGDPVTRVLDDGELLVQQTKNSDRTPLVSVLLEGPPHSGKTALAAKIAEESNFPFIKICSPDKMIGFSETAKCQAMKKIFDDAYKSQLSCVVVDQIERLLDYVPIGPRFSNLVLQALLVLLKKAPPQGRKLLIIGTTSRKDVLQEMEMLNAFSTTIHVPNIATGEQLLEALELLGNFKDKERTTIAQQVKGKKVWIGIKKLLMLIEMSLQMDPEYRVRKFLALLREEGASPLDFD | binds |
| NSF K549A mutant (natural protein, UniProt P18708 1-744, looked up) MAGRSMQAARCPTDELSLSNCAVVSEKDYQSGQHVIVRTSPNHKYIFTLRTHPSVVPGSVAFSLPQRKWAGLSIGQEIEVALYSFDKAKQCIGTMTIEIDFLQKKNIDSNPYDTDKMAAEFIQQFNNQAFSVGQQLVFSFNDKLFGLLVKDIEAMDPSILKGEPASGKRQKIEVGLVVGNSQVAFEKAENSSLNLIGKAKTKENRQSIINPDWNFEKMGIGGLDKEFSDIFRRAFASRVFPPEIVEQMGCKHVKGILLYGPPGCGKTLLARQIGKMLNAREPKVVNGPEILNKYVGESEANIRKLFADAEEEQRRLGANSGLHIIIFDEIDAICKQRGSMAGSTGVHDTVVNQLLSKIDGVEQLNNILVIGMTNRPDLIDEALLRPGRLEVKMEIGLPDEKGRLQILHIHTARMRGHQLLSADVDIKELAVETKNFSGAELEGLVRAAQSTAMNRHIKASTKVEVDMEKAESLQVTRGDFLASLENDIKPAFGTNQEDYASYIMNGIIKWGDPVTRVLDDGELLVQQTKNSDRTPLVSVLLEGPPHSGATALAAKIAEESNFPFIKICSPDKMIGFSETAKCQAMKKIFDDAYKSQLSCVVVDDIERLLDYVPIGPRFSNLVLQALLVLLKKAPPQGRKLLIIGTTSRKDVLQEMEMLNAFSTTIHVPNIATGEQLLEALELLGNFKDKERTTIAQQVKGKKVWIGIKKLLMLIEMSLQMDPEYRVRKFLALLREEGASPLDFD | binds |
| NSF E329Q mutant (natural protein, UniProt P18708 1-744, looked up) MAGRSMQAARCPTDELSLSNCAVVSEKDYQSGQHVIVRTSPNHKYIFTLRTHPSVVPGSVAFSLPQRKWAGLSIGQEIEVALYSFDKAKQCIGTMTIEIDFLQKKNIDSNPYDTDKMAAEFIQQFNNQAFSVGQQLVFSFNDKLFGLLVKDIEAMDPSILKGEPASGKRQKIEVGLVVGNSQVAFEKAENSSLNLIGKAKTKENRQSIINPDWNFEKMGIGGLDKEFSDIFRRAFASRVFPPEIVEQMGCKHVKGILLYGPPGCGKTLLARQIGKMLNAREPKVVNGPEILNKYVGESEANIRKLFADAEEEQRRLGANSGLHIIIFDQIDAICKQRGSMAGSTGVHDTVVNQLLSKIDGVEQLNNILVIGMTNRPDLIDEALLRPGRLEVKMEIGLPDEKGRLQILHIHTARMRGHQLLSADVDIKELAVETKNFSGAELEGLVRAAQSTAMNRHIKASTKVEVDMEKAESLQVTRGDFLASLENDIKPAFGTNQEDYASYIMNGIIKWGDPVTRVLDDGELLVQQTKNSDRTPLVSVLLEGPPHSGKTALAAKIAEESNFPFIKICSPDKMIGFSETAKCQAMKKIFDDAYKSQLSCVVVDDIERLLDYVPIGPRFSNLVLQALLVLLKKAPPQGRKLLIIGTTSRKDVLQEMEMLNAFSTTIHVPNIATGEQLLEALELLGNFKDKERTTIAQQVKGKKVWIGIKKLLMLIEMSLQMDPEYRVRKFLALLREEGASPLDFD | binds |
| NSF D604Q mutant (natural protein, UniProt P18708 1-744, looked up) MAGRSMQAARCPTDELSLSNCAVVSEKDYQSGQHVIVRTSPNHKYIFTLRTHPSVVPGSVAFSLPQRKWAGLSIGQEIEVALYSFDKAKQCIGTMTIEIDFLQKKNIDSNPYDTDKMAAEFIQQFNNQAFSVGQQLVFSFNDKLFGLLVKDIEAMDPSILKGEPASGKRQKIEVGLVVGNSQVAFEKAENSSLNLIGKAKTKENRQSIINPDWNFEKMGIGGLDKEFSDIFRRAFASRVFPPEIVEQMGCKHVKGILLYGPPGCGKTLLARQIGKMLNAREPKVVNGPEILNKYVGESEANIRKLFADAEEEQRRLGANSGLHIIIFDEIDAICKQRGSMAGSTGVHDTVVNQLLSKIDGVEQLNNILVIGMTNRPDLIDEALLRPGRLEVKMEIGLPDEKGRLQILHIHTARMRGHQLLSADVDIKELAVETKNFSGAELEGLVRAAQSTAMNRHIKASTKVEVDMEKAESLQVTRGDFLASLENDIKPAFGTNQEDYASYIMNGIIKWGDPVTRVLDDGELLVQQTKNSDRTPLVSVLLEGPPHSGKTALAAKIAEESNFPFIKICSPDKMIGFSETAKCQAMKKIFDDAYKSQLSCVVVDQIERLLDYVPIGPRFSNLVLQALLVLLKKAPPQGRKLLIIGTTSRKDVLQEMEMLNAFSTTIHVPNIATGEQLLEALELLGNFKDKERTTIAQQVKGKKVWIGIKKLLMLIEMSLQMDPEYRVRKFLALLREEGASPLDFD | binds |
